According to patent US20230201439A1:

How the values were obtained:
[1] = target: Nucleosomes (cfDNA measured by Nu.Q H3.1 assay) in porcine liver perfusion solution (porcine); experiment: batch depletion: porcine liver perfusate with 10% v/v antibody-agarose matrix, 60 min, 37 C; what is left is measured by Nu.Q H3.1 assay; sample 3, before incubation 87643 ng/ml
[2] = target: Nucleosomes (cfDNA measured by Nu.Q H3.1 assay) in porcine liver perfusion solution (porcine); experiment: batch depletion: porcine liver perfusate with 10% v/v antibody-agarose matrix, 60 min, 37 C; what is left is measured by Nu.Q H3.1 assay; sample 2, before incubation 73536 ng/ml
[3] = target: Nucleosomes (cfDNA measured by Nu.Q H3.1 assay) in porcine liver perfusion solution (porcine); experiment: batch depletion: porcine liver perfusate with 10% v/v antibody-agarose matrix, 60 min, 37 C; what is left is measured by Nu.Q H3.1 assay; sample 1, before incubation 92466 ng/ml

cfDNA quantity in perfusate after incubation with the matrix (Nu.Q H3 Assay) [1]: 29800 ng/mL
cfDNA quantity in perfusate after incubation with the matrix (Nu.Q H3 Assay) [2]: 24300 ng/mL
cfDNA quantity in perfusate after incubation with the matrix (Nu.Q H3 Assay) [3]: 38800 ng/mL
Substance: Antibody against histone H3.1 (Merck Millipore MABE952), coupled to NHS-activated Sepharose 4 Fast Flow
